# Test results from publication PMC3182920.
# T1: human nectin-1 ectodomain, nectin-1(346t) (human), Q15223
# T1 chain: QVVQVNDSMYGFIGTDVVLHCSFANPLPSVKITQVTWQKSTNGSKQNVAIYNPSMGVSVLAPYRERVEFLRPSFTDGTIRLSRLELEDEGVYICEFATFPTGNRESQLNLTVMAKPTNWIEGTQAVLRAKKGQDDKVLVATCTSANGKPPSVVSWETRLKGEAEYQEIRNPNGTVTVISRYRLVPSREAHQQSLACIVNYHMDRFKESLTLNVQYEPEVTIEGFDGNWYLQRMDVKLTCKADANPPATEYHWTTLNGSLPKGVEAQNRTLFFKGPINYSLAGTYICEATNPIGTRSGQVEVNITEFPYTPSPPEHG
# Key:
# [1] = target: HSV-1 glycoprotein D ectodomain truncated at residue 306 (gD306t); assay: ELISA; settings: read at the highest gD(306t) concentration, about 300 µg/ml; N1V-MBP immobilized; parent: est. 1.5; read off a plot
# MAb CK41 = assay: ELISA; settings: sub-panel CK41 (conf); immobilized antibody captures N1V-MBP; detection with anti-MBP-HRP; parent: est. 100; read off a plot
# anti-nectin-1 Ig CK6 = assay: ELISA; settings: sub-panel CK6 (80-105); immobilized antibody captures N1V-MBP; detection with anti-MBP-HRP; parent: est. 100; read off a plot
# [2] = target: human nectin-1 ectodomain, nectin-1(346t) (human) (UniProt Q15223); assay: SEC-MALS; SEC combined with multi-angle light scattering, purified proteins in solution; data not shown
# [3] = target: T1, human nectin-1 ectodomain, …; assay: as above; settings: remark: other sources report otherwise
stoichiometry N [3],Molecule,response [1] [OD405nm],percent of parent (% wt detection) (MAb CK41),percent of parent (% wt detection) (anti-nectin-1 Ig CK6),stoichiometry N [2]
,"nectin-1 V-domain fused to maltose binding protein (N1V-MBP), wild type (from UniProt Q15223-1) T66Q",1.4,71,110,
,"nectin-1 V-domain fused to maltose binding protein (N1V-MBP), wild type (from UniProt Q15223-1) S84R",1.3,120,90,
,"nectin-1 V-domain fused to maltose binding protein (N1V-MBP), wild type (from UniProt Q15223-1) F129S",0.2,7,93,
,"nectin-1 V-domain fused to maltose binding protein (N1V-MBP), wild type (from UniProt Q15223-1) S84Y",0.55,31,80,
,HSV-1 KOS glycoprotein D ectodomain truncated at residue 285 (gD285t) (domain or fragment),,,,1
,"nectin-1 V-domain fused to maltose binding protein (N1V-MBP), wild type (from UniProt Q15223-1) F129W",1.3,55,91,
,"nectin-1 V-domain fused to maltose binding protein (N1V-MBP), wild type (from UniProt Q15223-1) N82Y",0.12,,68,
2,"human nectin-1 ectodomain, nectin-1(346t), Q15223-1 31-346 (receptor) QVVQVNDSMYGFIGTDVVLHCSFANPLPSVKITQVTWQKSTNGSKQNVAIYNPSMGVSVLAPYRERVEFLRPSFTDGTIRLSRLELEDEGVYICEFATFPTGNRESQLNLTVMAKPTNWIEGTQAVLRAKKGQDDKVLVATCTSANGKPPSVVSWETRLKGEAEYQEIRNPNGTVTVISRYRLVPSREAHQQSLACIVNYHMDRFKESLTLNVQYEPEVTIEGFDGNWYLQRMDVKLTCKADANPPATEYHWTTLNGSLPKGVEAQNRTLFFKGPINYSLAGTYICEATNPIGTRSGQVEVNITEFPYTPSPPEHG",,,,
